Reference: patent US20240132578A1

Columns and labels:
[1] = biological target: HIV-1 Env of isolate JRCSF (HIV-1) (UniProt P20871); experiment: cell-based or functional assay
[2] = biological target: HIV-1 Env of isolate 92UG037 (pseudovirus) (HIV-1); experiment: cell-based or functional assay
[3] = biological target: HIV-1 Env of isolate THR0.18 (HIV-1); experiment: cell-based or functional assay
[4] = biological target: HIV-1 Env of isolate MGRM-A-010 (subtype A) (HIV-1); experiment: cell-based or functional assay
[5] = biological target: HIV-1 Env of isolate 93IN905 (HIV-1); experiment: cell-based or functional assay
[6] = biological target: HIV-1 Env of isolate MGRM-Chronic-B-020 (HIV-1); experiment: cell-based or functional assay
[7] = biological target: HIV-1 Env of isolate 93WR029 (pseudovirus) (HIV-1); experiment: cell-based or functional assay
[8] = biological target: HIV-1 Env of isolate MGRM-Chronic-B-012 (HIV-1); experiment: cell-based or functional assay
[9] = biological target: HIV-1 Env of isolate QH0692.42 (HIV-1); experiment: cell-based or functional assay
[10] = biological target: HIV-1 Env of isolate SF162 (HIV-1) (UniProt P19550); experiment: cell-based or functional assay
[11] = biological target: HIV-1 Env of isolate TRO.11 (HIV-1); experiment: cell-based or functional assay
[12] = biological target: HIV-1 Env of isolate MGRM-AE-006 (subtype AE) (HIV-1); experiment: cell-based or functional assay
[13] = biological target: HIV-1 Env of isolate MGRM-Chronic-B-011 (HIV-1); experiment: cell-based or functional assay
[14] = biological target: HIV-1 Env of isolate PVO.4 (HIV-1); experiment: cell-based or functional assay
[15] = biological target: HIV-1 Env of isolate TRJ04551.58 (HIV-1); experiment: cell-based or functional assay
[16] = biological target: HIV-1 Env of isolate 92WR021 (pseudovirus) (HIV-1); experiment: cell-based or functional assay
[17] = biological target: HIV-1 Env of isolate 92WR024 (pseudovirus) (HIV-1); experiment: cell-based or functional assay
[18] = biological target: HIV-1 Env of isolate 93MW959 (HIV-1); experiment: cell-based or functional assay
[19] = biological target: HIV-1 Env of isolate 92UG031 (pseudovirus) (HIV-1); experiment: cell-based or functional assay
[20] = biological target: HIV-1 Env of isolate 94UG103 (pseudovirus) (HIV-1); experiment: cell-based or functional assay
[21] = biological target: HIV-1 Env of isolate MGRM-Chronic-B-023 (HIV-1); experiment: cell-based or functional assay
[22] = biological target: HIV-1 JR-CSF Env K421A (HIV-1 (isolate JR-CSF)) (UniProt P20871); experiment: cell-based or functional assay
[23] = biological target: HIV-1 Env of isolate 98IN022 (HIV-1); experiment: cell-based or functional assay
[24] = biological target: HIV-1 Env of isolate SC422661.8 (HIV-1); experiment: cell-based or functional assay
[25] = biological target: HIV-1 Env of isolate MGRM-Chronic-B-017 (HIV-1); experiment: cell-based or functional assay
[26] = biological target: HIV-1 Env of isolate MGRM-Chronic-B-018 (HIV-1); experiment: cell-based or functional assay
[27] = biological target: HIV-1 Env of isolate MGRM-Chronic-B-024 (HIV-1); experiment: cell-based or functional assay
[28] = biological target: HIV-1 Env of isolate NL43 (HIV-1); experiment: cell-based or functional assay
[29] = biological target: HIV-1 JR-CSF Env N301A (HIV-1 (isolate JR-CSF, clade B)) (UniProt P20871); experiment: cell-based or functional assay
[30] = biological target: HIV-1 Env of isolate MGRM-F1-012 (HIV-1); experiment: cell-based or functional assay
[31] = biological target: HIV-1 Env of isolate 92WR020 (pseudovirus) (HIV-1); experiment: cell-based or functional assay
[32] = biological target: HIV-1 Env of isolate VLGCB3 (HIV-1); experiment: cell-based or functional assay
[33] = biological target: HIV-1 Env of isolate 97ZA012 (HIV-1); experiment: cell-based or functional assay
[34] = biological target: HIV-1 Env of isolate 93UG077 (pseudovirus) (HIV-1); experiment: cell-based or functional assay
[35] = biological target: HIV-1 Env of isolate MGRM-Chronic-B-010 (HIV-1); experiment: cell-based or functional assay
[36] = biological target: WT JR-FL gp120 (HIV-1 JR-FL); experiment: ELISA, antigen-coated wells, mAb titrated; EC50 by nonlinear regression
[37] = biological target: JR-FL gp120 ΔV1/ΔV2 (HIV-1 JR-FL); experiment: as above
[38] = biological target: HIV-1 92RW020 Env (HIV-1); experiment: cell-based or functional assay

| Substance | IC50 (µg/mL), pseudovirus neutralization [1] | IC50 (µg/mL), pseudovirus neutralization [2] | IC50 (µg/mL), pseudovirus neutralization [3] | IC50, pseudovirus neutralization [4] | IC50 (µg/mL), pseudovirus neutralization [5] | IC50 (µg/mL), pseudovirus neutralization [6] | IC50 (µg/mL), pseudovirus neutralization [7] | IC50 (µg/mL), pseudovirus neutralization [8] | IC50 (µg/mL), pseudovirus neutralization [9] | IC50 (µg/mL), pseudovirus neutralization [10] | IC50 (µg/mL), pseudovirus neutralization [11] | IC50, pseudovirus neutralization [12] | IC50 (µg/mL), pseudovirus neutralization [13] | IC50 (µg/mL), pseudovirus neutralization [14] | IC50 (µg/mL), pseudovirus neutralization [15] | IC50 (µg/mL), pseudovirus neutralization [16] | IC50 (µg/mL), pseudovirus neutralization [17] | IC50 (µg/mL), pseudovirus neutralization [18] | IC50 (µg/mL), pseudovirus neutralization [19] | IC50 (µg/mL), pseudovirus neutralization [20] | also measured |
| --- | --- | --- | --- | --- | --- | --- | --- | --- | --- | --- | --- | --- | --- | --- | --- | --- | --- | --- | --- | --- | --- |
| 5114_A19 (PGT-128) (antibody) | 0.003 µg/mL | 0.006 µg/mL | > 50 µg/mL | 0.005 µg/mL | 0.009 µg/mL | 0.007 µg/mL | > 50 µg/mL | 0.026 µg/mL | 0.029 µg/mL | 0.007 µg/mL | 0.018 µg/mL | 0.044 µg/mL | 0.02 µg/mL | 0.005 µg/mL | 0.019 µg/mL | 0.005 µg/mL | > 50 µg/mL | 0.045 µg/mL | > 50 µg/mL | 0.011 µg/mL | IC50 (µg/mL), pseudovirus neutralization [21]: > 50 µg/mL; Fold IC50 increase relative to wild-type (pseudovirus neutralization) [22]: 2 fold; IC50 (µg/mL), pseudovirus neutralization [23]: 0.014 µg/mL; IC50 (µg/mL), pseudovirus neutralization [24]: 1.58 µg/mL; IC50 (µg/mL), pseudovirus neutralization [25]: > 50 µg/mL; IC50 (µg/mL), pseudovirus neutralization [26]: 0.02 µg/mL; IC50 (µg/mL), pseudovirus neutralization [27]: > 50 µg/mL; IC50 (µg/mL), pseudovirus neutralization [28]: > 50 µg/mL; Fold IC50 increase relative to wild-type [29]: 10.7 fold; IC50 (µg/mL), pseudovirus neutralization [30]: 0.007 µg/mL; IC50 (µg/mL), pseudovirus neutralization [31]: 0.005 µg/mL; IC50 (µg/mL), pseudovirus neutralization [32]: 0.012 µg/mL; IC50 (µg/mL), pseudovirus neutralization [33]: 0.019 µg/mL; IC50 (µg/mL), pseudovirus neutralization [34]: 0.014 µg/mL; IC50 (µg/mL), pseudovirus neutralization [35]: 0.004 µg/mL; EC50 [36]: 0.1 µg/mL; EC50 [37]: 0.3 µg/mL |
| 5147_N06 (PGT-130) (antibody) | 0.01 µg/mL | 0.061 µg/mL | > 50 µg/mL | 0.005 µg/mL | 0.02 µg/mL | 0.014 µg/mL | 34.3 µg/mL | 0.373 µg/mL | > 50 µg/mL | 0.007 µg/mL | 0.257 µg/mL | 0.009 µg/mL | 0.153 µg/mL | 5.17 µg/mL | 0.023 µg/mL | 0.004 µg/mL | > 50 µg/mL | 8.55 µg/mL | > 50 µg/mL | 1.4 µg/mL | IC50, pseudovirus neutralization [38]: 0.014 µg/mL; IC50 (µg/mL), pseudovirus neutralization [21]: > 50 µg/mL; Fold IC50 increase relative to wild-type (pseudovirus neutralization) [22]: 2.9 fold; IC50 (µg/mL), pseudovirus neutralization [23]: > 50 µg/mL; IC50 (µg/mL), pseudovirus neutralization [24]: > 50 µg/mL; IC50 (µg/mL), pseudovirus neutralization [25]: > 50 µg/mL; IC50 (µg/mL), pseudovirus neutralization [26]: 31.9 µg/mL; IC50 (µg/mL), pseudovirus neutralization [27]: 5.78 µg/mL; IC50 (µg/mL), pseudovirus neutralization [28]: > 50 µg/mL; Fold IC50 increase relative to wild-type [29]: > 1000 fold; IC50 (µg/mL), pseudovirus neutralization [30]: > 50 µg/mL; IC50 (µg/mL), pseudovirus neutralization [31]: 0.039 µg/mL; IC50 (µg/mL), pseudovirus neutralization [32]: 4.6 µg/mL; IC50 (µg/mL), pseudovirus neutralization [33]: 1.32 µg/mL; IC50 (µg/mL), pseudovirus neutralization [34]: 21.4 µg/mL; IC50 (µg/mL), pseudovirus neutralization [35]: 0.006 µg/mL; EC50 [36]: 0.2 µg/mL |
